Measurements: the supplement of paper PMC5998384

Columns and labels:
[1] = system: HeLa Kyoto; test: solubility in G1/S (NP-40 vs SDS abundance) (log2 ratio); higher = more soluble; settings: cell cycle stage: G1/S
[2] = system: HeLa Kyoto; test: melting temperature (median over replicates), in situ; higher = more thermally stable
[3] = system: HeLa Kyoto; test: solubility change mitosis vs G1/S (difference of NP-40 vs SDS log2 ratios) (log2 ratio difference); higher = more soluble in mitosis
[4] = system: HeLa Kyoto; test: thermal stability score vs G1/S (z-score of summed log2 fold changes over temperatures); higher = more thermally stable than in G1/S
[5] = cell cycle stage: early G1 (4.5 h after nocodazole release)
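Wherever melting temperature (median over replicates), in situ is given: HeLa Kyoto cells synchronized by double thymidine or nocodazole block, proteins quantified by TMT10plex mass spectrometry, three independent biological replicates.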
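Wherever solubility change mitosis vs G1/S (difference of NP-40 vs SDS log2 ratios) is given: synchronized HeLa Kyoto cells (double thymidine block for G1/S, nocodazole release for mitosis), protein amounts in NP-40 versus SDS lysates quantified by mass spectrometry, three biological replicates.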
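Wherever solubility in G1/S (NP-40 vs SDS abundance) is given: HeLa Kyoto cells arrested at G1/S by double thymidine block, proteins quantified by TMT10plex mass spectrometry in mild NP-40 versus SDS extracts, three biological replicates.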
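Wherever thermal stability score vs G1/S (z-score of summed log2 fold changes over temperatures) is given: synchronized HeLa Kyoto cells, proteins quantified by TMT10plex mass spectrometry, three biological replicates, mitosis taken 0.5 h after nocodazole release, G1/S directly after double thymidine block.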

Sequence of TIMM17B (chain, as listed by the source): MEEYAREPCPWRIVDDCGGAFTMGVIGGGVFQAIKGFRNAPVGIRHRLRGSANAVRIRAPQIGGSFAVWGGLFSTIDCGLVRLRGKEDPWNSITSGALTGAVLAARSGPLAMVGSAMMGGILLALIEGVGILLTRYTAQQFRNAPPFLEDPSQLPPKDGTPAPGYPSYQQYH

| Substance | solubility in G1/S (log2) [1] | melting temperature ([2]; cell cycle stage: G1/S) | melting temperature ([2]; cell cycle stage: mitosis) | solubility change mitosis (log2) [3] | thermal stability score [4, 5] | thermal stability score ([4]; cell cycle stage: mitosis) |
| --- | --- | --- | --- | --- | --- | --- |
| MTEQAISFAKDFLAGGIAAAISKTAVAPIERVKLLLQVQHASKQIAADKQYKGIVDCIVRIPKEQGVLSFWRGNLANVIRYFPTQALNFAFKDKYKQIFLGGVDKHTQFWRYFAGNLASGGAAGATSLCFVYPLDFARTRLAADVGKSGTEREFRGLGDCLVKITKSDGIRGLYQGFSVSVQGIIIYRAAYFGVYDTAKGMLPDPKNTHIVVSWMIAQTVTAVAGVVSYPFDTVRRRMMMQSGRKGADIMYTGTVDCWRKIFRDEGGKAFFKGAWSNVLRGMGGAFVLVLYDELKKVI [SLC25A6] | -0.157 | 57.1 °C | 57.4 °C | 0.0142 | -0.865 | -3.48 |
| MTEEACRTRSQKRALERDPTEDDVESKKIKMERGLLASDLNTDGDMRVTPEPGAGPTQGLLRATEATAMAMGRGEGLVGDGPVDMRTSHSDMKSERRPPSPDVIVLSDNEQPSSPRVNGLTTVALKETSTEALMKSSPEERERMIKQLKEELRLEEAKLVLLKKLRQSQIQKEATAQKPTGSVGSTVTTPPPLVRGTQNIPAGKPSLQTSSARMPGSVIPPPLVRGGQQASSKLGPQASSQVVMPPLVRGAQQIHSIRQHSSTGPPPLLLAPRASVPSVQIQGQRIIQQGLIRVANVPNTSLLVNIPQPTPASLKGTTATSAQANSTPTSVASVVTSAESPASRQAAAKLALRKQLEKTLLEIPPPKPPAPEMNFLPSAANNEFIYLVGLEEVVQNLLETQGRMSAATVLSREPYMCAQCKTDFTCRWREEKSGAIMCENCMTTNQKKALKVEHTSRLKAAFVKALQQEQEIEQRLLQQGTAPAQAKAEPTAAPHPVLKQVIKPRRKLAFRSGEARDWSNGAVLQASSQLSRGSATTPRGVLHTFSPSPKLQNSASATALVSRTGRHSERTVSAGKGSATSNWKKTPLSTGGTLAFVSPSLAVHKSSSAVDRQREYLLDMIPPRSIPQSATWK [GATAD2A] | 0.481 | 47.3 °C | 50.4 °C | 0.0452 | 0.921 | 3.21 |
| MLLGGPPRSPRSGTSPKGPWSSTGHVQFGKSPQTWPRRTRPRSPEPAAPSGVRGSTWTRRRDSPRRAGPTALSRYVGHLWMGRRPPSPEARGPVPRSSAASRARRSLASPGISPGPLTATIGGAVAGGGPRQGRAEAHKEVFPGQRVGKMAAPMELFCWSGGWGLPSVDLDSLAVLTYARFTGAPLKVHKISNPWQSPSGTLPALRTSHGEVISVPHKIITHLRKEKYNADYDLSARQGADTLAFMSLLEEKLLPVLVHTFWIDTKNYVEVTRKWYAEAMPFPLNFFLPGRMQRQYMERLQLLTGEHRPEDEEELEKELYREARECLTLLSQRLGSQKFFFGDAPASLDAFVFSYLALLLQAKLPSGKLQVHLRGLHNLCAYCTHILSLYFPWDGAEVPPQRQTPAGPETEEEPYRRRNQILSVLAGLAAMVGYALLSGIVSIQRATPARAPGTRTLGMAEEDEEE [MTX1] | 0.309 | 52.8 °C | 52.4 °C | -0.12 | 0.166 | -0.623 |
| MSSIGTGYDLSASTFSPDGRVFQVEYAMKAVENSSTAIGIRCKDGVVFGVEKLVLSKLYEEGSNKRLFNVDRHVGMAVAGLLADARSLADIAREEASNFRSNFGYNIPLKHLADRVAMYVHAYTLYSAVRPFGCSFMLGSYSVNDGAQLYMIDPSGVSYGYWGCAIGKARQAAKTEIEKLQMKEMTCRDIVKEVAKIIYIVHDEVKDKAFELELSWVGELTNGRHEIVPKDIREEAEKYAKESLKEEDESDDDNM [PSMA3] | 0.204 | 60.7 °C | 56.7 °C | -0.0697 | -2.57 | -3.19 |
| MAVFDTPEEAFGVLRPVCVQLTKTQTVENVEHLQTRLQAVSDSALQELQQYILFPLRFTLKTPGPKRERLIQSVVECLTFVLSSTCVKEQELLQELFSELSACLYSPSSQKPAAVSEELKLAVIQGLSTLMHSAYGDIILTFYEPSILPRLGFAVSLLLGLAEQEKSKQIKIAALKCLQVLLLQCDCQDHPRSLDELEQKQLGDLFASFLPGISTALTRLITGDFKQGHSIVVSSLKIFYKTVSFIMADEQLKRISKVQAKPAVEHRVAELMVYREADWVKKTGDKLTILIKKIIECVSVHPHWKVRLELVELVEDLLLKCSQSLVECAGPLLKALVGLVNDESPEIQAQCNKVLRHFADQKVVVGNKALADILSESLHSLATSLPRLMNSQDDQGKFSTLSLLLGYLKLLGPKINFVLNSVAHLQRLSKALIQVLELDVADIKIVEERRWNSDDLNASPKTSATQPWNRIQRRYFRFFTDERIFMLLRQVCQLLGYYGNLYLLVDHFMELYHQSVVYRKQAAMILNELVTGAAGLEVEDLHEKHIKTNPEELREIVTSILEEYTSQENWYLVTCLETEEMGEELMMEHPGLQAITSGEHTCQVTSFLAFSKPSPTICSMNSNIWQICIQLEGIGQFAYALGKDFCLLLMSALYPVLEKAGDQTLLISQVATSTMMDVCRACGYDSLQHLINQNSDYLVNGISLNLRHLALHPHTPKVLEVMLRNSDANLLPLVADVVQDVLATLDQFYDKRAASFVSVLHALMAALAQWFPDTGNLGHLQEQSLGEEGSHLNQRPAALEKSTTTAEDIEQFLLNYLKEKDVADGNVSDFDNEEEEQSVPPKVDENDTRPDVEPPLPLQIQIAMDVMERCIHLLSDKNLQIRLKVLDVLDLCVVVLQSHKNQLLPLAHQAWPSLVHRLTRDAPLAVLRAFKVLRTLGSKCGDFLRSRFCKDVLPKLAGSLVTQAPISARAGPVYSHTLAFKLQLAVLQGLGPLCERLDLGEGDLNKVADACLIYLSVKQPVKLQEAARSVFLHLMKVDPDSTWFLLNELYCPVQFTPPHPSLHPVQLHGASGQQNPYTTNVLQLLKELQ [TTI1] | -0.12 | 49.6 °C | 49.9 °C | -0.179 | 0.152 | 0.696 |
| MEQVEILRKFIQRVQAMKSPDHNGEDNFARDFMRLRRLSTKYRTEKIYPTATGEKEENVKKNRYKDILPFDHSRVKLTLKTPSQDSDYINANFIKGVYGPKAYVATQGPLANTVIDFWRMIWEYNVVIIVMACREFEMGRKKCERYWPLYGEDPITFAPFKISCEDEQARTDYFIRTLLLEFQNESRRLYQFHYVNWPDHDVPSSFDSILDMISLMRKYQEHEDVPICIHCSAGCGRTGAICAIDYTWNLLKAGKIPEEFNVFNLIQEMRTQRHSAVQTKEQYELVHRAIAQLFEKQLQLYEIHGAQKIADGVNEINTENMVSSIEPEKQDSPPPKPPRTRSCLVEGDAKEEILQPPEPHPVPPILTPSPPSAFPTVTTVWQDNDRYHPKPVLHMVSSEQHSADLNRNYSKSTELPGKNESTIEQIDKKLERNLSFEIKKVPLQEGPKSFDGNTLLNRGHAIKIKSASPCIADKISKPQELSSDLNVGDTSQNSCVDCSVTQSNKVSVTPPEESQNSDTPPRPDRLPLDEKGHVTWSFHGPENAIPIPDLSEGNSSDINYQTRKTVSLTPSPTTQVETPDLVDHDNTSPLFRTPLSFTNPLHSDDSDSDERNSDGAVTQNKTNISTASATVSAATSTESISTRKVLPMSIARHNIAGTTHSGAEKDVDVSEDSPPPLPERTPESFVLASEHNTPVRSEWSELQSQERSEQKKSEGLITSENEKCDHPAGGIHYEMCIECPPTFSDKREQISENPTEATDIGFGNRCGKPKGPRDPPSEWT [PTPN12] | 0.143 | 49.4 °C | 49.8 °C | -0.242 | -0.24 | 0.678 |
| TIMM17B | 0.308 | 54.9 °C | 57.2 °C | 0.0028 | -0.611 | -0.727 |
| MVTVGNYCEAEGPVGPAWMQDGLSPCFFFTLVPSTRMALGTLALVLALPCRRRERPAGADSLSWGAGPRISPYVLQLLLATLQAALPLAGLAGRVGTARGAPLPSYLLLASVLESLAGACGLWLLVVERSQARQRLAMGIWIKFRHSPGLLLLWTVAFAAENLALVSWNSPQWWWARADLGQQVQFSLWVLRYVVSGGLFVLGLWAPGLRPQSYTLQVHEEDQDVERSQVRSAAQQSTWRDFGRKLRLLSGYLWPRGSPALQLVVLICLGLMGLERALNVLVPIFYRNIVNLLTEKAPWNSLAWTVTSYVFLKFLQGGGTGSTGFVSNLRTFLWIRVQQFTSRRVELLIFSHLHELSLRWHLGRRTGEVLRIADRGTSSVTGLLSYLVFNVIPTLADIIIGIIYFSMFFNAWFGLIVFLCMSLYLTLTIVVTEWRTKFRRAMNTQENATRARAVDSLLNFETVKYYNAESYEVERYREAIIKYQGLEWKSSASLVLLNQTQNLVIGLGLLAGSLLCAYFVTEQKLQVGDYVLFGTYIIQLYMPLNWFGTYYRMIQTNFIDMENMFDLLKEETEVKDLPGAGPLRFQKGRIEFENVHFSYADGRETLQDVSFTVMPGQTLALVGPSGAGKSTILRLLFRFYDISSGCIRIDGQDISQVTQASLRSHIGVVPQDTVLFNDTIADNIRYGRVTAGNDEVEAAAQAAGIHDAIMAFPEGYRTQVGERGLKLSGGEKQRVAIARTILKAPGIILLDEATSALDTSNERAIQASLAKVCANRTTIVVAHRLSTVVNADQILVIKDGCIVERGRHEALLSRGGVYADMWQLQQGQEETSEDTKPQTMER [ABCB6] | -0.0102 | 54 °C | 53.4 °C | -0.128 | -1.04 | -3.83 |
| MPNIKIFSGSSHQDLSQKIADRLGLELGKVVTKKFSNQETCVEIGESVRGEDVYIVQSGCGEINDNLMELLIMINACKIASASRVTAVIPCFPYARQDKKDKSRAPISAKLVANMLSVAGADHIITMDLHASQIQGFFDIPVDNLYAEPAVLKWIRENISEWRNCTIVSPDAGGAKRVTSIADRLNVDFALIHKERKKANEVDRMVLVGDVKDRVAILVDDMADTCGTICHAADKLLSAGATRVYAILTHGIFSGPAISRINNACFEAVVVTNTIPQEDKMKHCSKIQVIDISMILAEAIRRTHNGESVSYLFSHVPL [PRPS1] | -0.185 | 57.3 °C | 57.4 °C | -0.136 | 1.55 | 0.473 |
| MDFNMKKLASDAGIFFTRAVQFTEEKFGQAEKTELDAHFENLLARADSTKNWTEKILRQTEVLLQPNPSARVEEFLYEKLDRKVPSRVTNGELLAQYMADAASELGPTTPYGKTLIKVAEAEKQLGAAERDFIHTASISFLTPLRNFLEGDWKTISKERRLLQNRRLDLDACKARLKKAKAAEAKATTVPDFQETRPRNYILSASASALWNDEVDKAEQELRVAQTEFDRQAEVTRLLLEGISSTHVNHLRCLHEFVKSQTTYYAQCYRHMLDLQKQLGRFPGTFVGTTEPASPPLSSTSPTTAAATMPVVPSVASLAPPGEASLCLEEVAPPASGTRKARVLYDYEAADSSELALLADELITVYSLPGMDPDWLIGERGNKKGKVPVTYLELLS [SH3GLB2] | 0.445 | 49.7 °C | 50.1 °C | -0.0988 | -1.15 | 0.211 |
| MASSDIQVKELEKRASGQAFELILSPRSKESVPEFPLSPPKKKDLSLEEIQKKLEAAEERRKSHEAEVLKQLAEKREHEKEVLQKAIEENNNFSKMAEEKLTHKMEANKENREAQMAAKLERLREKDKHIEEVRKNKESKDPADETEAD [STMN1] | 0.635 | 56.7 °C | 64.1 °C | 0.208 | -6.5 | -5.49 |
| MSSLSGKVQTVLGLVEPSKLGRTLTHEHLAMTFDCCYCPPPPCQEAISKEPIVMKNLYWIQKNAYSHKENLQLNQETEAIKEELLYFKANGGGALVENTTTGISRDTQTLKRLAEETGVHIISGAGFYVDATHSSETRAMSVEQLTDVLMNEILHGADGTSIKCGIIGEIGCSWPLTESERKVLQATAHAQAQLGCPVIIHPGRSSRAPFQIIRILQEAGADISKTVMSHLDRTILDKKELLEFAQLGCYLEYDLFGTELLHYQLGPDIDMPDDNKRIRRVRLLVEEGCEDRILVAHDIHTKTRLMKYGGHGYSHILTNVVPKMLLRGITENVLDKILIENPKQWLTFK [PTER] | 0.0448 | 56.8 °C | 57 °C | -0.0354 | -2.92 | -0.753 |
